Molecular target: the molecule itself
Assay: native gel of lysates from non-stressed cells (self-association; cells also hold endogenous NPM); FIG. 5B

B1: flag-tagged NPM normal mimic (T86A-S88A-T95A-T234E-S242E) (other)
chain: MEDSMDMDMSPLRPQNYLFGCELKADKDYHFKVDNDENEHQLSLRTVSLGAGAKDELHIVEAEAMNYEGSPIKVTLATLKMSVQPAVALGGFEIAPPVVLRLKCGSGPVHISGQHLVAVEEDAESEDEEEEDVKLLSISGKRSAPGGGSKVPQKKVKLAADEDDDDDDEEDDDEDDDDDDFDDEEAEEKAPVKKSIRDTPAKNAQKSNQNGKDSKPSSTPRSKGQESFKKQEKEPKTPKGPESVEDIKAKMQASIEKGGSLPKVEAKFINYVKNCFRMTDQEAIQDLWQWRKSL
notes: Lentiviral expression in primary PTEC; also called normal mimic NPM; NrNPM; not shown: amino-terminal flag tag
- binding result: binds
